Reference: article PMC3552326
Read-outs that look alike come from different tables or passages of the source.

Legend:
[1] = target: Dns136-α-synuclein (Y136C, dansyl-labelled) (human) (UniProt P37840); assay: other fluorescence titration
[2] = target: Dns100-α-synuclein (L100C, dansyl-labelled) (human) (UniProt P37840); assay: other fluorescence titration
[3] = target: Dns136-α-synuclein (Y136C, dansyl-labelled) (human) (UniProt P37840); assay: other fluorescence titration; remark: listed apart in the source
[4] = target: α-synuclein peptide residues 118–140 containing C136, dansyl-labelled (DnsC23) (human) (UniProt P37840); assay: other fluorescence titration
[5] = target: Dns100-α-synuclein (L100C, dansyl-labelled) (human) (UniProt P37840); assay: other fluorescence titration; remark: listed apart in the source
[6] = target: Dns100-α-synuclein (L100C, dansyl-labelled) (human) (UniProt P37840); assay: FRET or BRET
[7] = target: Dns136-α-synuclein (Y136C, dansyl-labelled) (human) (UniProt P37840); assay: FRET or BRET
[8] = target: Dns136-α-synuclein (Y136C, dansyl-labelled) (human) (UniProt P37840); assay: other fluorescence titration; remark: listed apart in the source

“glucocerebrosidase (taliglucerase alfa, recombinant GCase) (from UniProt P04062 40-533) (enzyme)” showed a Kd [1] of 11 µM, a Kd [2] of 40 µM and a Kd [3] of 8 µM. The Kd [4] was 2 µM, the Kd [5] was 1 µM and the <λ> shift [6] was 2 nm. For the same substance, the <λ> shift [7] was 6 nm and the Kd [8] was 1 µM.
